Measured values: patent US20240018263A1

Columns and labels:
[1] = target: VH-9.7 antigen on human patient-derived glioblastoma stem-like cells (GSC lines 12.1, 22, 33, 44, 99); test: flow cytometry titration of monomeric VH-9.7 on live 33 GSC, one-site equilibrium fit, four independent titrations
[2] = target: VH-9.7 antigen on human patient-derived glioblastoma stem-like cells (GSC lines 12.1, 22, 33, 44, 99); test: flow cytometry on cells dissociated from 44 GSC orthotopic xenografts, 125 nM predimerized VH-9.7

Kd [1]: 74.3 nM
percent of cells labelled [2]: 17.9%
B1: VH-9.7-CMYC-HIS6 (soluble, purified single domain antibody VH-9.7) (antibody, V domains shown)
VH: QVQLVESEAEVKKPGASVKVSCKASGYSFTNYYMHWVRQAPGQGLEWMGLIDPSGTSTTYAQKFQGRVTMTRDTSASTVYMELTSLRSEDTAMYYCVGEESGSGSFSDWGQGTLVTVSS
